Experimental data: IntAct's records for PubMed 15744310

B1: NAD-dependent protein deacetylase sirtuin-1 (Mus musculus), Q923E4 (parent)
chain: MADEVALALQAAGSPSAAAAMEAASQPADEPLRKRPRRDGPGLGRSPGEPSAAVAPAAAGCEAASAAAPAALWREAAGAAASAEREAPATAVAGDGDNGSGLRREPRAADDFDDDEGEEEDEAAAAAAAAAIGYRDNLLLTDGLLTNGFHSCESDDDDRTSHASSSDWTPRPRIGPYTFVQQHLMIGTDPRTILKDLLPETIPPPELDDMTLWQIVINILSEPPKRKKRKDINTIEDAVKLLQECKKIIVLTGAGVSVSCGIPDFRSRDGIYARLAVDFPDLPDPQAMFDIEYFRKDPRPFFKFAKEIYPGQFQPSLCHKFIALSDKEGKLLRNYTQNIDTLEQVAGIQRILQCHGSFATASCLICKYKVDCEAVRGDIFNQVVPRCPRCPADEPLAIMKPEIVFFGENLPEQFHRAMKYDKDEVDLLIVIGSSLKVRPVALIPSSIPHEVPQILINREPLPHLHFDVELLGDCDVIINELCHRLGGEYAKLCCNPVKLSEITEKPPRPQKELVHLSELPPTPLHISEDSSSPERTVPQDSSVIATLVDQATNNNVNDLEVSESSCVEEKPQEVQTSRNVENINVENPDFKAVGSSTADKNERTSVAETVRKCWPNRLAKEQISKRLEGNQYLFVPPNRYIFHGAEVYSDSEDDVLSSSSCGSNSDSGTCQSPSLEEPLEDESEIEEFYNGLEDDTERPECAGGSGFGADGGDQEVVNEAIATRQELTDVNYPSDKS
partner: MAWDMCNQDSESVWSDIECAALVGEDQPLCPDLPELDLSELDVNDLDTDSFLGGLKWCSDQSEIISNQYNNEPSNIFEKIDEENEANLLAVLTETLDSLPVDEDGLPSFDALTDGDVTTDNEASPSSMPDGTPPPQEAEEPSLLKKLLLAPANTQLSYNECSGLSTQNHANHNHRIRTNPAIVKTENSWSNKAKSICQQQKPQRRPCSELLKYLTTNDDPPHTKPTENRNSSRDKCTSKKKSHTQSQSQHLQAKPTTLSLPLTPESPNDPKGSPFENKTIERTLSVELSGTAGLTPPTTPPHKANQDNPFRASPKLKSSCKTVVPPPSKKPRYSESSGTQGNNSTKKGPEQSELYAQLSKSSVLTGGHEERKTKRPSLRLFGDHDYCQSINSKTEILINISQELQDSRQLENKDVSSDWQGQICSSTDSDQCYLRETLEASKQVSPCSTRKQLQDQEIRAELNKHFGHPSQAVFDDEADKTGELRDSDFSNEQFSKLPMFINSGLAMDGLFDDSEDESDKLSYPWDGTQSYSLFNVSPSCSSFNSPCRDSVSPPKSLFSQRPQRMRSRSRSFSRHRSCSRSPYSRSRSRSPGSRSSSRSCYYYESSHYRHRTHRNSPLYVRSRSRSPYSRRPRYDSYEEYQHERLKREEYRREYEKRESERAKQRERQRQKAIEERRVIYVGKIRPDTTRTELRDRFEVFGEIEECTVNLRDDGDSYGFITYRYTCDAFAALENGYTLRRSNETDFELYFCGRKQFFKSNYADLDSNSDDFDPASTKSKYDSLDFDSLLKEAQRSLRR

Variants of: B1
Details: with prgc1_human PPARGC1A

| Variant | effect of a mutation on the interaction |
| --- | --- |
| H355A | decreasing interaction |
